For this test, the target named is 14-3-3β (UniProt Q9CQV8). Briefly: co-IP with anti-FLAG beads, 14-3-3β blot. The note with it: reference: FLAG-Bmal1 wild type; sites S42.

We go through 1 substance from paper PMC5013695.

Chain of UniProt Q9CQV8 (Q9CQV8 whole entry, looked up): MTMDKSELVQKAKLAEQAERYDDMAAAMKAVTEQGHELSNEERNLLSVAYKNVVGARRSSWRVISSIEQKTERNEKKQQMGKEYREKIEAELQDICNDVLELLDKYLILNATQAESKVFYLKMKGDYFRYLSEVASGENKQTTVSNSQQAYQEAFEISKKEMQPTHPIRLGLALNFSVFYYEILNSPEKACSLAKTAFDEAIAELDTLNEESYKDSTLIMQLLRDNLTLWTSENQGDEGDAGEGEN

For “Bmal1 (from UniProt Q9WTL8-4) FLAG-Bmal1 S42A”, the “binding against the reference” value is reported as “weaker”.
